The results in this text go back to publication PMC3941051.

The target in the assay is His-FLAG-Arp5 (not stated (human or rat cDNA cloned)) (UniProt Q9H9F9). Description: cross-linking.
UniProt Q9H9F9, sequence (Q9H9F9 whole entry): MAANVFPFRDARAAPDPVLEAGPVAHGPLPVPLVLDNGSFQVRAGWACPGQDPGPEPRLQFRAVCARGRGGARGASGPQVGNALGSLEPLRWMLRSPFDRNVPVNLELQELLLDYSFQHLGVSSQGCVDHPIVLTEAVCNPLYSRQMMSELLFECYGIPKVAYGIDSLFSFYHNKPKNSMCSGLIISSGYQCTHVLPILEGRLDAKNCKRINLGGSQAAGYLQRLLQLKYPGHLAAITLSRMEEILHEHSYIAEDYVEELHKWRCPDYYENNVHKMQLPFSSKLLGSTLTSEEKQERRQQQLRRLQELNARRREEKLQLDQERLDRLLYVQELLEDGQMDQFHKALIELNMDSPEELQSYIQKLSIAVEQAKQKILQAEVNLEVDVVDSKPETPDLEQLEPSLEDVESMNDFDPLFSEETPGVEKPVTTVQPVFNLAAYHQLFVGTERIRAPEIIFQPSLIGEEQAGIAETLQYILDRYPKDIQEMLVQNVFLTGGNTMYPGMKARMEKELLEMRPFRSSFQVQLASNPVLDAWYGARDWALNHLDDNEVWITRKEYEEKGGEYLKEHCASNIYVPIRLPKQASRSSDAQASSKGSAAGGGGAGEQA

In the case of “GFP-fused 32-amino acid Myocd RPEL1 motif peptide (RPEL1-GFP)”, the stoichiometry N was found to be 1.
